Results as given in patent US20220242958A1 (published 2022).
Substitutions are numbered along the chain they refer to. In names and notes the source's numbering stands.

T1: recombinant IL-3Rα ectodomain (UniProt P26951 19-305, limits assumed)
T1 construct: extracellular domain; also called IL-3Ra ectodomain; recombinant IL-3Ra
T1 sequence (looked up): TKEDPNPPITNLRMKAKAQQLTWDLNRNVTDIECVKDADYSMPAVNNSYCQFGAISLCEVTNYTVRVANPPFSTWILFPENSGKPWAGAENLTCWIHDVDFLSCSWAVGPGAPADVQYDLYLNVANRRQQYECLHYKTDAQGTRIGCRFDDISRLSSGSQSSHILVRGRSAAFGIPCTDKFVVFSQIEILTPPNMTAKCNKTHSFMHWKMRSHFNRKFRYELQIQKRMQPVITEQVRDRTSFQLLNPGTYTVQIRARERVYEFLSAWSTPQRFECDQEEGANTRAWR

B1: 55A01-281F12 (A0110055A01-35GS-4CXCR281F12(Q108L)) (bispecific antibody)
chain: EVQLVESGGGSVQAGGSLRLSCTTSGRALNMYVMGWFRQAPGNEREFVAATSSSGGSTSYPDSVKGRFTISRDNAKNTVYLQMNSLKPEDTAAYRCAASPYVSTPTMNILEEYRYWGQGTLVTVSSGGGGSGGGGSGGGGSGGGGSGGGGSGGGGSGGGGSEVQLVESGGGLVQAGDSLRLSCAASGRAFSRYAMGWFRQAPGKEREFVAAIGWGPSKTNYADSVKGRFTISRDNAKNTVYLQMNTLKPEDTAVYSCAAKFVNTDSTWSRSEMYTYWGQGTLVTVSSAAAEQKLISEEDLNGAAHHHHHH
notes: the entry carries a c-myc-His6 tag; also made as Flag3-His6-tagged protein; also called CD123#2-CXCR4#2; BI#15/24
B2: 14D09-57A07 (4CXCR014D09(Q108L)-35GS-A0110057A07) (bispecific antibody)
chain: EVQLVESGGGLVQAGGSLRLSCVASGISSSKRNMGWYRQAPGKQRESVATISSGGNKDYTDAVKDRFTISRDTTKNTVYLQMNSLKPEDTAVYYCKIEAGTGWATRRGYTYWGQGTLVTVSSGGGGSGGGGSGGGGSGGGGSGGGGSGGGGSGGGGSEVQLVESGGGLVQAGGSLRLSCAASGSIFSGNVMGWYRRQAPGKEREWVAAIASGGSIYYRDSVKGRFTISRDNAKNTVYLQMNSLKPEDTAVYYCNSHPPTLPYWGQGTLVTVSSAAAEQKLISEEDLNGAAHHHHHH
notes: the entry carries a c-myc-His6 tag; also made as Flag3-His6-tagged protein; also called CXCR4#1-CD123#1; BI#16/20
B3: 281F12-57A07 (4CXCR281F12(Q108L)-35GS-A0110057A07) (bispecific antibody)
chain: EVQLVESGGGLVQAGDSLRLSCAASGRAFSRYAMGWFRQAPGKEREFVAAIGWGPSKTNYADSVKGRFTISRDNAKNTVYLQMNTLKPEDTAVYSCAAKFVNTDSTWSRSEMYTYWGQGTLVTVSSGGGGSGGGGSGGGGSGGGGSGGGGSGGGGSGGGGSEVQLVESGGGLVQAGGSLRLSCAASGSIFSGNVMGWYRRQAPGKEREWVAAIASGGSIYYRDSVKGRFTISRDNAKNTVYLQMNSLKPEDTAVYYCNSHPPTLPYWGQGTLVTVSSAAAEQKLISEEDLNGAAHHHHHH
notes: the entry carries a c-myc-His6 tag; also made as Flag3-His6-tagged protein; also called CXCR4#2-CD123#1; BI#4/18
B4: 14D09-55A01 (4CXCR014D09(Q108L)-35GS-A0110055A01) (bispecific antibody)
chain: EVQLVESGGGLVQAGGSLRLSCVASGISSSKRNMGWYRQAPGKQRESVATISSGGNKDYTDAVKDRFTISRDTTKNTVYLQMNSLKPEDTAVYYCKIEAGTGWATRRGYTYWGQGTLVTVSSGGGGSGGGGSGGGGSGGGGSGGGGSGGGGSGGGGSEVQLVESGGGSVQAGGSLRLSCTTSGRALNMYVMGWFRQAPGNEREFVAATSSSGGSTSYPDSVKGRFTISRDNAKNTVYLQMNSLKPEDTAAYRCAASPYVSTPTMNILEEYRYWGQGTLVTVSSAAAEQKLISEEDLNGAAHHHHHH
notes: the entry carries a c-myc-His6 tag; also made as Flag3-His6-tagged protein; also called CXCR4#1-CD123#2; BI#7/19
B5: 57A07-14D09 (A0110057A07-35GS-4CXCR014D09(Q108L)) (bispecific antibody)
chain: EVQLVESGGGLVQAGGSLRLSCAASGSIFSGNVMGWYRRQAPGKEREWVAAIASGGSIYYRDSVKGRFTISRDNAKNTVYLQMNSLKPEDTAVYYCNSHPPTLPYWGQGTLVTVSSGGGGSGGGGSGGGGSGGGGSGGGGSGGGGSGGGGSEVQLVESGGGLVQAGGSLRLSCVASGISSSKRNMGWYRQAPGKQRESVATISSGGNKDYTDAVKDRFTISRDTTKNTVYLQMNSLKPEDTAVYYCKIEAGTGWATRRGYTYWGQGTLVTVSSAAAEQKLISEEDLNGAAHHHHHH
notes: the entry carries a c-myc-His6 tag; for the cell assays the construct was recloned and made in Pichia as Flag3-His6-tagged protein; also called CD123#1-CXCR4#1; BI#11/23
B6: CD4#8-IL23R#20 (bispecific antibody)
chain: EVQLVESGGGSVQPGGSLTLSCGTSGRTFNVMGWFRQAPGKEREFVAAVRWSSTGIYYTQYADSVKSRFTISRDNAKNTVYLEMNSLKPEDTAVYYCAADTYNSNPARWDGYDFRGQGTLVTVSSGGGGSGGGGSGGGGSGGGGSGGGGSGGGGSGGGGSEVQLVESGGGLVQAGGSLRLSCAASGRTFSSYAMGWFRQAPGKDREFVAAISWIGESTYYADSVKGRFTISRDNAKNTVYLRMNSLKPEDTAVYYCAADLYYTAYVAAADEYDYWGQGTLVTVSS
notes: also called BI#44; T023200044
B7: 57A07-281F12 (A0110057A07-35GS-4CXCR281F12(Q108L)) (bispecific antibody)
chain: EVQLVESGGGLVQAGGSLRLSCAASGSIFSGNVMGWYRRQAPGKEREWVAAIASGGSIYYRDSVKGRFTISRDNAKNTVYLQMNSLKPEDTAVYYCNSHPPTLPYWGQGTLVTVSSGGGGSGGGGSGGGGSGGGGSGGGGSGGGGSGGGGSEVQLVESGGGLVQAGDSLRLSCAASGRAFSRYAMGWFRQAPGKEREFVAAIGWGPSKTNYADSVKGRFTISRDNAKNTVYLQMNTLKPEDTAVYSCAAKFVNTDSTWSRSEMYTYWGQGTLVTVSSAAAEQKLISEEDLNGAAHHHHHH
notes: the entry carries a c-myc-His6 tag; also made as Flag3-His6-tagged protein; also called CD123#1-CXCR4#2; BI#10/21
B8: IL23R#20-CD4#8 (bispecific antibody)
chain: EVQLVESGGGLVQAGGSLRLSCAASGRTFSSYAMGWFRQAPGKDREFVAAISWIGESTYYADSVKGRFTISRDNAKNTVYLRMNSLKPEDTAVYYCAADLYYTAYVAAADEYDYWGQGTLVTVSSGGGGSGGGGSGGGGSGGGGSGGGGSGGGGSGGGGSEVQLVESGGGSVQPGGSLTLSCGTSGRTFNVMGWFRQAPGKEREFVAAVRWSSTGIYYTQYADSVKSRFTISRDNAKNTVYLEMNSLKPEDTAVYYCAADTYNSNPARWDGYDFRGQGTLVTVSS
notes: also called BI#43; T023200043
B9: IL12Rb1#30-CD4#8 (bispecific antibody)
chain: EVQLVESGGGLVQTGGSLRLSCAASGRTPRLVAMGWFRQTPGKEREFVGEIILSKGFTYYADSVKGRFTISRVNAKNTITMYLQMNSLKSEDTAVYYCAGRQNWSGSPARTNEYEYWGQGTLVTVSSGGGGSGGGGSGGGGSGGGGSGGGGSGGGGSGGGGSEVQLVESGGGSVQPGGSLTLSCGTSGRTFNVMGWFRQAPGKEREFVAAVRWSSTGIYYTQYADSVKSRFTISRDNAKNTVYLEMNSLKPEDTAVYYCAADTYNSNPARWDGYDFRGQGTLVTVSS
notes: also called BI#46; T023200046
B10: IL12Rb1#31-CD4#8 (bispecific antibody)
chain: B9 chain with R30S, L31I, V32I, V73A, G100A, S107N, A109T
notes: also called BI#47; T023200047
B11: CD4#8-IL23R#19 (bispecific antibody)
chain: EVQLVESGGGSVQPGGSLTLSCGTSGRTFNVMGWFRQAPGKEREFVAAVRWSSTGIYYTQYADSVKSRFTISRDNAKNTVYLEMNSLKPEDTAVYYCAADTYNSNPARWDGYDFRGQGTLVTVSSGGGGSGGGGSGGGGSGGGGSGGGGSGGGGSGGGGSEVQLVESGGGLVQPGGSLTLSCVASGRTFSTDVMGWFRQAPGKEREFVAAHRTSGISTVYAASVKGRFTISRDNAKNTVYLGMKSLKPEDTAVYVCAAGSDASGGYDYWGQGTLVTVSS
notes: also called BI#45; T023200045
B12: 55A01-14D09 (A0110055A01-35GS-4CXCR014D09(Q108L)) (bispecific antibody)
chain: EVQLVESGGGSVQAGGSLRLSCTTSGRALNMYVMGWFRQAPGNEREFVAATSSSGGSTSYPDSVKGRFTISRDNAKNTVYLQMNSLKPEDTAAYRCAASPYVSTPTMNILEEYRYWGQGTLVTVSSGGGGSGGGGSGGGGSGGGGSGGGGSGGGGSGGGGSEVQLVESGGGLVQAGGSLRLSCVASGISSSKRNMGWYRQAPGKQRESVATISSGGNKDYTDAVKDRFTISRDTTKNTVYLQMNSLKPEDTAVYYCKIEAGTGWATRRGYTYWGQGTLVTVSSAAAEQKLISEEDLNGAAHHHHHH
notes: the entry carries a c-myc-His6 tag; also made as Flag3-His6-tagged protein; also called CD123#2-CXCR4#1; BI#8/22
B13: 281F12-55A01 (4CXCR281F12(Q108L)-35GS-A0110055A01) (bispecific antibody)
chain: EVQLVESGGGLVQAGDSLRLSCAASGRAFSRYAMGWFRQAPGKEREFVAAIGWGPSKTNYADSVKGRFTISRDNAKNTVYLQMNTLKPEDTAVYSCAAKFVNTDSTWSRSEMYTYWGQGTLVTVSSGGGGSGGGGSGGGGSGGGGSGGGGSGGGGSGGGGSEVQLVESGGGSVQAGGSLRLSCTTSGRALNMYVMGWFRQAPGNEREFVAATSSSGGSTSYPDSVKGRFTISRDNAKNTVYLQMNSLKPEDTAAYRCAASPYVSTPTMNILEEYRYWGQGTLVTVSSAAAEQKLISEEDLNGAAHHHHHH
notes: the entry carries a c-myc-His6 tag; also made as Flag3-His6-tagged protein; also called CXCR4#2-CD123#2; BI#3/17
B14: CD4#8-IL12Rb1#30 (bispecific antibody)
chain: EVQLVESGGGSVQPGGSLTLSCGTSGRTFNVMGWFRQAPGKEREFVAAVRWSSTGIYYTQYADSVKSRFTISRDNAKNTVYLEMNSLKPEDTAVYYCAADTYNSNPARWDGYDFRGQGTLVTVSSGGGGSGGGGSGGGGSGGGGSGGGGSGGGGSGGGGSEVQLVESGGGLVQTGGSLRLSCAASGRTPRLVAMGWFRQTPGKEREFVGEIILSKGFTYYADSVKGRFTISRVNAKNTITMYLQMNSLKSEDTAVYYCAGRQNWSGSPARTNEYEYWGQGTLVTVSS
notes: also called BI#40; T023200040
B15: CD4#8-IL12Rb1#31 (bispecific antibody)
chain: B14 chain with R190S, L191I, V192I, V233A, G260A, S267N, A269T
notes: also called BI#41; T023200041

Assays:
[1] = molecular target: T1, recombinant IL-3Rα ectodomain; experiment: ELISA, recombinant IL-3Ra
[2] = molecular target: human CXCR4 (on cells, membrane extracts or viral lipoparticles) (human, UniProt P61073 1-352); experiment: cell-based or functional assay
Sequence of human CXCR4 (on cells, membrane extracts or viral lipoparticles) (P61073 whole entry): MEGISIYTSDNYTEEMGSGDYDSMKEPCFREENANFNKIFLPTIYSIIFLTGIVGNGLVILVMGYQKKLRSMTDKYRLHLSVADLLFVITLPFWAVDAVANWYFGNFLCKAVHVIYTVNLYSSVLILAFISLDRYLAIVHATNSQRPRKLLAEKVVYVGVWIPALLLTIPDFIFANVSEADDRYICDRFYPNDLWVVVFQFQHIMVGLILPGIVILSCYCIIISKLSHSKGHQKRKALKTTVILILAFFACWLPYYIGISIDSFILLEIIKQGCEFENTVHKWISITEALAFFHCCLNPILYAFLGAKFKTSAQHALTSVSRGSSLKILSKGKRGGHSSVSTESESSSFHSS

[3] = molecular target: T2, human CD4, cell-expressed (human, UniProt P01730 26-458); experiment: FACS, MOLM-13 cells
T2 construct: whole, on cells

Binder | binding result [1] | Fold inc. vs anti-CXCR4 building block, Jurkat E6-1 [2] | Fold inc. vs anti-CXCR4 building block, MOLM-13 [2] | IC50, CXCL-12 induced chemotaxis, Jurkat E6-1 [2] | IC50, CXCL-12 induced chemotaxis, MOLM-13 [2] | binding result [3]
B1 | binds | – | – | – | – | –
B2 | binds | 0.69 fold | 2.39 fold | 15 nM | 3.6 nM | –
B3 | binds | 2.55 fold | 12.6 fold | 38 nM | 6.83 nM | –
B4 | binds | 0.87 fold | 2.39 fold | 12 nM | 3.6 nM | –
B5 | binds | 0.05 fold | – | 210 nM | – | –
B6 | – | – | – | – | – | binds
B7 | binds | – | – | – | – | –
B8 | – | – | – | – | – | binds
B9 | – | – | – | – | – | binds
B10 | – | – | – | – | – | binds
B11 | – | – | – | – | – | binds
B12 | binds | 0.12 fold | 0.03 fold | 85 nM | 290 nM | –
B13 | binds | 1.13 fold | 10.9 fold | 86 nM | 7.85 nM | –
B14 | – | – | – | – | – | binds
B15 | – | – | – | – | – | binds
